Results: the supplement of paper PMC11246515
± gives the standard deviation of the averaged measurements.

Assay: total protein half-life in vivo (active degradation + dilution); higher = more stable protein
[1] = E. coli NCM3722 delta-clpP delta-lon delta-hslV, growth: N-lim chemostat, doubling time 6 h
[2] = E. coli NCM3722 delta-clpP, growth: N-lim chemostat, doubling time 6 h
[3] = E. coli NCM3722 delta-hslV, growth: N-lim chemostat, doubling time 6 h
[4] = E. coli NCM3722 delta-lon, growth: N-lim chemostat, doubling time 6 h
[5] = E. coli NCM3722 delta-smpB, growth: N-lim chemostat, doubling time 6 h
[6] = wild type E. coli NCM3722, growth: C-lim chemostat, doubling time 3 h
[7] = wild type E. coli NCM3722, growth: C-lim chemostat, doubling time 6 h
[8] = wild type E. coli NCM3722, growth: C-lim chemostat, doubling time 12 h
[9] = wild type E. coli NCM3722, growth: N-lim chemostat, doubling time 6 h
[10] = wild type E. coli NCM3722, growth: N-lim chemostat, doubling time 12 h
[11] = wild type E. coli NCM3722, growth: P-lim chemostat, doubling time 6 h
[12] = wild type E. coli NCM3722, growth: P-lim chemostat, doubling time 12 h

Sequence | total protein half-life in vivo [1] | total protein half-life in vivo [2] | total protein half-life in vivo [3] | total protein half-life in vivo [4] | total protein half-life in vivo [5] | total protein half-life in vivo [6] | total protein half-life in vivo [7] | total protein half-life in vivo [8] | total protein half-life in vivo [9] | total protein half-life in vivo [10] | total protein half-life in vivo [11] | total protein half-life in vivo [12]
MSEMTPREIVSELDKHIIGQDNAKRSVAIALRNRWRRMQLNEELRHEVTPKNILMIGPTGVGKTEIARRLAKLANAPFIKVEATKFTEVGYVGKEVDSIIRDLTDAAVKMVRVQAIEKNRYRAEELAEERILDVLIPPAKNNWGQTEQQQEPSAARQAFRKKLREGQLDDKEIEIDLAAAPMGVEIMAPPGMEEMTSQLQSMFQNLGGQKQKARKLKIKDAMKLLIEEEAAKLVNPEELKQDAIDAVEQHGIVFIDEIDKICKRGESSGPDVSREGVQRDLLPLVEGCTVSTKHGMVKTDHILFIASGAFQIAKPSDLIPELQGRLPIRVELQALTTSDFERILTEPNASITVQYKALMATEGVNIEFTDSGIKRIAEAAWQVNESTENIGARRLHTVLERLMEEISYDASDLSGQNITIDADYVSKHLDALVADEDLSRFIL [P0A6H5] | 5.09 ± 0.28 h | 5.18 ± 0.56 h | 4.46 ± 0.12 h | 5.23 ± 0.29 h | 4.21 ± 0.085 h | 2.95 ± 0.36 h | 5.94 ± 0.93 h | 10.3 ± 0.44 h | 4.79 ± 0.11 h | 8.11 ± 0.2 h | 5.29 ± 0.054 h | 10.98 ± 0.036 h
MSSDIKIKVQSFGRFLSNMVMPNIGAFIAWGIITALFIPTGWLPNETLAKLVGPMITYLLPLLIGYTGGKLVGGERGGVVGAITTMGVIVGADMPMFLGSMIAGPLGGWCIKHFDRWVDGKIKSGFEMLVNNFSAGIIGMILAILAFLGIGPIVEALSKMLAAGVNFMVVHDMLPLASIFVEPAKILFLNNAINHGIFSPLGIQQSHELGKSIFFLIEANPGPGMGVLLAYMFFGRGSAKQSAGGAAIIHFLGGIHEIYFPYVLMNPRLILAVILGGMTGVFTLTILGGGLVSPASPGSILAVLAMTPKGAYFANIAGVCAAMAVSFVVSAILLKTSKVKEEDDIEAATRRMQDMKAESKGASPLSAGDVTNDLSHVRKIIVACDAGMGSSAMGAGVLRKKIQDAGLSQISVTNSAINNLPPDVDLVITHRDLTERAMRQVPQAQHISLTNFLDSGLYTSLTERLVAAQRHTANEEKVKDSLKDSFDDSSANLFKLGAENIFLGRKAATKEEAIRFAGEQLVKGGYVEPEYVQAMLDREKLTPTYLGESIAVPHGTVEAKDRVLKTGVVFCQYPEGVRFGEEEDDIARLVIGIAARNNEHIQVITSLTNALDDESVIERLAHTTSVDEVLELLAGRK | 6.55 ± 0.42 h | 6.42 ± 0.66 h | 6.25 ± 0.23 h | – | 6.64 ± 0.41 h | 3.35 ± 0.32 h | 6.92 ± 0.54 h | 12.66 ± 0.082 h | 6.4 ± 0.15 h | – | 6.275 ± 0.059 h | 13.8 ± 1.2 h
MAIKLEIKNLYKIFGEHPQRAFKYIEQGLSKEQILEKTGLSLGVKDASLAIEEGEIFVIMGLSGSGKSTMVRLLNRLIEPTRGQVLIDGVDIAKISDAELREVRRKKIAMVFQSFALMPHMTVLDNTAFGMELAGINAEERREKALDALRQVGLENYAHSYPDELSGGMRQRVGLARALAINPDILLMDEAFSALDPLIRTEMQDELVKLQAKHQRTIVFISHDLDEAMRIGDRIAIMQNGEVVQVGTPDEILNNPANDYVRTFFRGVDISQVFSAKDIARRTPNGLIRKTPGFGPRSALKLLQDEDREYGYVIERGNKFVGAVSIDSLKTALTQQQGLDAALIDAPLAVDAQTPLSELLSHVGQAPCAVPVVDEDQQYVGIISKGMLLRALDREGVNNG | 5.58 ± 1.6 h | – | – | – | – | 1.16 h | – | – | 5.28 h | – | – | –
MIKVYGVPGWGSTISELMLTLADIPYQFVDVSGFDHEGASRELLKTLNPLCQVPTLALENDEIMTETAAIALMVLDRRPDLAPPVGRAERQLFQRLLVWLVANVYPTFTFADYPERWAPDAPEQLKKNVIEYRKSLYIWLNSQLTAEPYAFGEQLTLVDCYLCTMRTWGPGHEWFQDNATNISAIADAVCQLPKLQEVLKRNEII | 5.47 ± 0.78 h | 4.57 ± 0.21 h | 4.93 ± 0.096 h | 4.6 h | 4.48 ± 0.6 h | – | 4.99 h | – | 4.76 h | – | 6.17 h | 12.2 h
MAIRKRFIAGAKCPACQAQDSMAMWRENNIDIVECVKCGHQMREADKEARDHVRKDEQVIGIFHPD [P0ADW8] | 4.91 ± 0.73 h | 3.52 ± 0.46 h | – | – | 2.16 ± 0.17 h | 1.8 ± 0.47 h | 4.08 ± 1.4 h | 2.51 h | – | 2.52 h | 3.48 h | 7.36 ± 1.6 h
